From the supplement of paper PMC11136658

Tested on: peptide library, one residue held at a place counted from the Y acceptor
Assay: relative phosphorylation of the sub-library (ratio to the mean residue at this position); higher = residue favoured
Procedure, shortened: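 Biotinylated Tyr-centred peptide library mixtures, each fixing one residue at one position from −5 to +5, were incubated with purified recombinant kinases in 384-well plates for 90 min with 50 μM ATP plus γ-32P-ATP. Streptavidin membranes captured the peptides, which were rinsed and quantified by phosphorimaging and ImageQuant. At each position, intensities were divided by the sum of the 18 randomized residues (16 for the Ser/Thr-free library) and multiplied by that number. Each value is phosphorylation relative to the mean randomized residue.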

Sequence of TNK1, construct: aa106-390, human (Q13470 106-390, looked up): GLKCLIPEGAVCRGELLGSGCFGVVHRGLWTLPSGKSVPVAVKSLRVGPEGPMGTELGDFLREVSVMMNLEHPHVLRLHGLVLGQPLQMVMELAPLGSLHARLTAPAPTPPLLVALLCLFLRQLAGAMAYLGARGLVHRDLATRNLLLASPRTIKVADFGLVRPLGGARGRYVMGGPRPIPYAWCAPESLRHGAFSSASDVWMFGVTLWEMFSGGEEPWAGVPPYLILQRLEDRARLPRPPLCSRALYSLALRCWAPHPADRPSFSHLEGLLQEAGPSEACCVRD
Sequence of TXK, construct: aa239-end, human (P42681 239-527, looked up): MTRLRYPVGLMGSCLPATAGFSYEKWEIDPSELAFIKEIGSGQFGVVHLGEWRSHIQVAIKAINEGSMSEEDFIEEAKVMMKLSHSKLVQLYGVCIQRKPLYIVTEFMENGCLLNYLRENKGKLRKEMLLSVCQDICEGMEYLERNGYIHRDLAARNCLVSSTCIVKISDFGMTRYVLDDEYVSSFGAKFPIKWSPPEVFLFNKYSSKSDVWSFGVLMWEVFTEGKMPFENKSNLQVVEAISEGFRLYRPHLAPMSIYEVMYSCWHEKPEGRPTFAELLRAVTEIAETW
Sequence of TNNI3K, construct: aa1-727, human (Q59H18 1-727, looked up): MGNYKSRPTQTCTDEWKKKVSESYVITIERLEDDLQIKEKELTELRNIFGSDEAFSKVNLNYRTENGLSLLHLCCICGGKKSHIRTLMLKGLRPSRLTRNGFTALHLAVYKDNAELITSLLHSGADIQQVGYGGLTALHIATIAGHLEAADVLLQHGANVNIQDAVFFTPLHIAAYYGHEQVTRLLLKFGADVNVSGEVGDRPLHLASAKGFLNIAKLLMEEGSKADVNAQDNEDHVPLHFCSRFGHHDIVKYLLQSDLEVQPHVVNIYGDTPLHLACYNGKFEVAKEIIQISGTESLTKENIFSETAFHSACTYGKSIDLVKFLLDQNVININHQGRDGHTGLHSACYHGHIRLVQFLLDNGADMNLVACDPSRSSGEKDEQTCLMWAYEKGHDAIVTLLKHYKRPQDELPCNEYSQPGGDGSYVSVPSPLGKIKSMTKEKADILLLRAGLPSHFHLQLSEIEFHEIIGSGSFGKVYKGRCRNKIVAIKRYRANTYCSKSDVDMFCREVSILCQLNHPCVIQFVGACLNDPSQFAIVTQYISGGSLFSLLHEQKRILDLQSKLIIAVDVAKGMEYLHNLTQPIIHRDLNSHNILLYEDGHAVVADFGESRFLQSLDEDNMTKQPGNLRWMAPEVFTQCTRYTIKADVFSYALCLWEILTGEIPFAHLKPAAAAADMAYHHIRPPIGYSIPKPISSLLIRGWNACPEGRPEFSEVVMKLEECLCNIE

TNK1, construct: aa106-390, human (from UniProt Q13470)
relative phosphorylation
Conditions	at +1	at +2	at +3	at +4	at +5	at -1	at -2	at -3	at -4	at -5
A fixed	1.56	0.82	0.743	0.902	0.977	0.86	1.01	0.962	1.07	1.08
D fixed	0.25	0.328	0.335	0.714	0.594	0.276	0.529	0.641	0.78	0.845
E fixed	0.386	0.471	0.268	0.706	0.558	0.277	0.576	0.606	0.8	0.737
F fixed	1.09	1.28	1.87	1.25	1.1	1.01	0.762	0.95	0.886	0.885
G fixed	0.859	0.527	0.82	0.965	1.11	0.924	1.39	1.26	1.32	1.24
H fixed	1.12	0.884	1.24	1.1	0.947	1.64	1.14	1.09	1.01	1.1
I fixed	1.05	1.43	1.27	0.73	0.857	0.809	0.627	0.571	0.807	0.849
K fixed	1.2	1.09	0.728	1.25	1.23	1.59	1.41	1.43	1.29	1.37
L fixed	1	1.23	1.21	0.892	0.997	0.825	0.678	0.784	0.963	0.904
M fixed	1.05	1.36	1.16	1.11	1.13	0.927	0.681	0.84	0.941	0.934
N fixed	0.602	0.876	0.627	0.959	0.978	0.898	1.22	1.1	0.936	1.03
P fixed	0.544	0.843	0.976	1.15	1.53	1.18	1.36	1.33	1.44	1.26
Q fixed	1.08	0.825	0.573	1.1	0.864	1.09	1.07	0.982	1.02	1.04
R fixed	1.45	1.27	0.987	1.28	1.17	2.56	1.8	1.6	1.44	1.26
S fixed	0.936	0.787	0.661	0.901	0.982	0.779	1.23	1.15	0.863	0.999
T fixed	1.03	1.07	0.665	0.891	1.01	0.895	1.01	1.06	0.765	0.912
V fixed	1.18	1.4	1.19	0.846	0.878	0.733	0.748	0.702	0.828	0.832
W fixed	1.6	1.51	2.69	1.26	1.1	0.723	0.749	0.947	0.845	0.718
pThr fixed	0.344	0.38	0.211	0.367	0.429	0.291	0.492	0.539	0.593	0.738
pTyr fixed	0.725	0.413	0.326	0.454	0.485	0.538	0.594	0.733	0.791	0.812

TNK2, construct: aa110-476, human (from UniProt Q07912)
relative phosphorylation
Conditions	at +1	at +2	at +3	at +4	at +5	at -1	at -2	at -3	at -4	at -5
A fixed	2.37	1	0.658	1.04	1.1	0.664	1.24	1.03	1.2	1.13
D fixed	0.799	0.461	0.257	0.749	1.13	0.346	0.917	0.791	0.737	0.812
E fixed	1.01	0.72	0.202	0.835	1.03	0.323	1	0.671	0.743	0.783
F fixed	0.716	1.39	1.03	0.929	1.22	0.934	0.737	0.901	1.05	0.971
G fixed	1.5	0.489	0.492	1.71	1.08	0.562	1.25	1.18	1.23	1.47
H fixed	0.684	0.724	0.513	1.01	0.897	1.59	1	0.972	1	1.05
I fixed	0.759	1.25	3.15	0.888	0.904	1.64	0.74	0.744	0.767	0.834
K fixed	0.587	0.915	0.316	0.774	0.694	1.3	0.894	1.07	1.2	1.12
L fixed	0.684	0.964	2.32	0.742	1.15	1.73	0.694	0.911	0.779	0.787
M fixed	1.37	1.03	1.07	1.02	0.97	1.26	0.69	0.924	0.89	0.815
N fixed	0.613	0.755	0.359	0.903	0.836	0.7	1.03	1.04	0.958	0.996
P fixed	0.233	1.26	0.881	1.55	1.16	0.809	1.69	1.36	1.3	1.22
Q fixed	1.5	1.03	0.437	0.873	0.955	1.15	1.21	1.03	1.17	0.966
R fixed	0.89	1.32	0.367	0.995	0.543	1.82	1.05	1.32	1.36	1.31
S fixed	1.18	1.02	0.543	1.21	1.01	0.626	1.16	1.12	0.824	0.952
T fixed	1.05	1.25	0.94	1.03	1.14	0.936	0.987	1.02	0.762	0.951
V fixed	1.04	1.32	2.39	0.846	0.949	0.951	0.952	0.825	0.785	0.755
W fixed	1.03	1.11	2.07	0.898	1.22	0.658	0.759	1.1	1.25	1.08
pThr fixed	0.667	1.05	0.311	0.814	0.654	0.486	0.969	0.721	0.716	0.775
pTyr fixed	0.727	2.16	0.495	0.959	1.03	0.669	0.714	0.904	0.888	1

TNNI3K, construct: aa1-727, human (from UniProt Q59H18)
relative phosphorylation
Conditions	at +1	at +2	at +3	at +4	at +5	at -1	at -2	at -3	at -4	at -5
A fixed	1.74	0.816	0.787	0.992	0.912	1.78	1.09	0.969	1.16	1.17
D fixed	0.328	0.35	0.376	0.377	0.577	1.18	0.589	0.741	0.664	0.668
E fixed	0.277	0.288	0.455	0.35	0.483	1.23	0.717	0.683	0.757	0.538
F fixed	0.587	0.975	1.03	1.01	1.04	0.637	0.998	1.12	1.05	1.09
G fixed	0.605	0.86	0.909	1.12	0.791	1.1	1.34	1.34	1.5	1.35
H fixed	0.57	1.04	1.22	0.997	1.04	0.943	1.18	1.13	1.04	0.979
I fixed	2.26	0.78	0.929	0.945	0.795	0.572	1.03	0.914	0.894	0.958
K fixed	0.896	1.83	1.68	1.24	1.76	0.641	0.992	0.982	1.22	1.22
L fixed	0.79	0.65	1.02	1.11	1.01	0.477	0.805	0.863	0.949	1.06
M fixed	0.914	0.661	0.751	1.1	0.948	0.553	0.738	0.781	0.853	0.787
N fixed	0.62	0.853	0.837	0.74	0.85	1.44	1.02	0.99	0.765	0.77
P fixed	0.555	0.774	0.847	1.21	1.06	1.13	0.928	1.27	1.11	1.18
Q fixed	0.746	0.978	1.13	0.952	0.861	1.24	1.05	0.815	0.925	0.808
R fixed	1.23	2.79	2.39	1.73	1.98	0.687	1.4	1.07	1.25	1.21
V fixed	2.88	0.736	0.835	0.979	0.83	0.701	0.996	1.05	0.947	0.98
W fixed	0.784	1.39	0.892	1.27	1.08	0.579	1.11	1.37	1.27	1.46
pThr fixed	0.215	0.234	0.259	0.263	0.44	0.253	0.593	0.715	0.515	0.622
pTyr fixed	0.365	0.427	0.38	0.365	0.583	0.479	0.832	1.21	0.898	0.776

TXK, construct: aa239-end, human (from UniProt P42681)
relative phosphorylation
Conditions	at +1	at +2	at +3	at +4	at +5	at -1	at -2	at -3	at -4	at -5
A fixed	1.58	1.14	0.87	0.836	0.784	0.51	1.03	0.998	1.03	1.07
D fixed	2.77	1.02	0.409	0.931	0.726	0.678	2.01	1.85	1.81	1.32
E fixed	2.53	1.15	0.345	0.797	0.692	0.83	1.99	2.25	1.53	1.32
F fixed	0.463	1.14	1.52	1.03	1.26	1	0.539	0.887	0.727	0.858
G fixed	1.28	0.725	0.939	1.18	1.14	0.379	1.35	1.13	1.34	1.27
H fixed	0.614	1.08	1.38	1.07	1.1	0.774	0.798	0.997	0.89	1.04
I fixed	0.981	0.782	0.907	0.835	0.76	3.78	0.515	0.553	0.641	0.782
K fixed	0.175	0.848	0.625	0.986	1.05	0.34	0.693	0.63	0.905	1.04
L fixed	0.444	0.723	1.12	0.881	0.901	2.45	0.627	0.534	0.571	0.722
M fixed	0.788	0.788	1.24	0.968	0.88	1.4	0.602	0.598	0.76	0.723
N fixed	0.539	1.3	1.24	1.05	1.1	0.638	1.24	1.25	1.17	1.06
P fixed	0.254	0.933	0.908	1.63	1.23	0.531	1.74	1.16	1.24	1.25
Q fixed	0.98	1.16	0.937	0.94	1.08	0.514	1.19	1.19	1.19	1.16
R fixed	0.207	1.14	1.01	1.13	1.21	0.27	0.605	0.64	0.858	0.944
S fixed	1.22	1.41	1.07	0.968	0.896	0.575	1.06	0.995	0.895	0.898
T fixed	1.39	1.64	0.808	1.09	1	0.948	0.87	0.928	0.908	0.807
V fixed	1.57	1.01	0.9	0.834	0.783	1.45	0.624	0.571	0.728	0.771
W fixed	0.829	1.06	1.64	0.899	1.3	0.461	0.443	0.77	0.607	0.668
pThr fixed	3.94	2.21	0.407	0.62	0.444	1.85	1.4	1.35	1.14	0.994
pTyr fixed	1.25	1.67	0.517	0.595	0.619	1.72	1.2	1.23	0.945	0.998
